In patent publication US20050065082A1 (published 2005):

Assays:
[1] = target: T1, GST-BPL1 (N-terminal GST fusion protein of human BPL1, holocarboxylase synthetase) (human, UniProt P50747 1-726); test: not described, Example 4 holds only kinase assays
T1 construct: Expressed in E. coli BL21; not shown: glutathione S-transferase (GST) tag encoded by the pGEX-4T vector (Amersham Pharmacia Biotech), N-terminal
T1 sequence: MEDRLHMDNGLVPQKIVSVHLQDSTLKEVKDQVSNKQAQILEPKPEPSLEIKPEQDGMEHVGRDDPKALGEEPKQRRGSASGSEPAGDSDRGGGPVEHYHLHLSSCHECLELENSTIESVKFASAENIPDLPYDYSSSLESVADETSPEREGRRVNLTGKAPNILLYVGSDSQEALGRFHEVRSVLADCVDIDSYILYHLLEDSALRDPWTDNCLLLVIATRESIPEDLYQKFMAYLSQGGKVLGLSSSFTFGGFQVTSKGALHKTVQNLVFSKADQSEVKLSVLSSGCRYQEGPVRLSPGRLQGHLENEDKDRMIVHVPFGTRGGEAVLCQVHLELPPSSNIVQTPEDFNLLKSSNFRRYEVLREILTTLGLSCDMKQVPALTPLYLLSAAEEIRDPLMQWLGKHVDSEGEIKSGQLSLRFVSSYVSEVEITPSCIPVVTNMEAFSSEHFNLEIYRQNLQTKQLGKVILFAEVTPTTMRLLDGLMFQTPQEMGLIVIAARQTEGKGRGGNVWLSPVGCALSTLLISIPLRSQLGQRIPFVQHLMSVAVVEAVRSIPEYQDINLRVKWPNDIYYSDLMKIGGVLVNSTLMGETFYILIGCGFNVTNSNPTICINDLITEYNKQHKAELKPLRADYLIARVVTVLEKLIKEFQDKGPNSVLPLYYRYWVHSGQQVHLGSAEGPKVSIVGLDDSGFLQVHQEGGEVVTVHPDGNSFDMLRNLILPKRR

[2] = target: T2, GST-BMAL1 (N-terminal GST fusion protein of human BMAL1; BMAL1b was used) (human, UniProt O00327 1-626); test: not described, Example 3 holds only kinase assays
T2 construct: Expressed in E. coli BL21; not shown: glutathione S-transferase (GST) tag encoded by the pGEX-4T vector (Amersham Pharmacia Biotech), N-terminal
T2 sequence (O00327 whole entry, the tested form may be a part): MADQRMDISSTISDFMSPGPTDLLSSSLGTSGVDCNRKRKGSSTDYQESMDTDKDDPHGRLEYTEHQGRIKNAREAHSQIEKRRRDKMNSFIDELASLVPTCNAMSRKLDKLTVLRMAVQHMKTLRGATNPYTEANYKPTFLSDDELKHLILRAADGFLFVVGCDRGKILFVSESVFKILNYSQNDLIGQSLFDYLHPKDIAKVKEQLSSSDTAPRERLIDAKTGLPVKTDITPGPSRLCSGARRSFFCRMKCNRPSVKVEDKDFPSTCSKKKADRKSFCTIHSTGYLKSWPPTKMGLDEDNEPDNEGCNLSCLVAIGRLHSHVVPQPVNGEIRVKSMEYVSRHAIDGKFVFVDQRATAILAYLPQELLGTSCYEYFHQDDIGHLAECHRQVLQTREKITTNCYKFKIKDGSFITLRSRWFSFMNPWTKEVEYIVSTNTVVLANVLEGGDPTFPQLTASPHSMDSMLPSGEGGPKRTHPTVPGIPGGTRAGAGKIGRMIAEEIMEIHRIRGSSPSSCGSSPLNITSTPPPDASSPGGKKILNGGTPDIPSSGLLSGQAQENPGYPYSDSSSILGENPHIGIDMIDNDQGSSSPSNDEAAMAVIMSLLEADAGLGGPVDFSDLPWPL

B1: His-JNK3 (activated human JNK3 (JNK3α1) with an N-terminal histidine-tag) (enzyme, UniProt P53779-2 1-422, looked up)
chain: MSLHFLYYCSEPTLDVKIAFCQGFDKQVDVSYIAKHYNMSKSKVDNQFYSVEVGDSTFTVLKRYQNLKPIGSGAQGIVCAAYDAVLDRNVAIKKLSRPFQNQTHAKRAYRELVLMKCVNHKNIISLLNVFTPQKTLEEFQDVYLVMELMDANLCQVIQMELDHERMSYLLYQMLCGIKHLHSAGIIHRDLKPSNIVVKSDCTLKILDFGLARTAGTSFMMTPYVVTRYYRAPEVILGMGYKENVDIWSVGCIMGEMVRHKILFPGRDYIDQWNKVIEQLGTPCPEFMKKLQPTVRNYVENRPKYAGLTFPKLFPDSLFPADSEHNKLKASQARDLLSKMLVIDPAKRISVDDALQHPYINVWYDPAEVEAPPPQIYDKQLDEREHTIEEWKELIYKEVMNSEEKTKNGVVKGQPSPSAQVQQ
notes: Expressed in Sf9 cells by recombinant baculovirus, purified with Probond Resin; not shown: N-terminal His-tag and vector residues of pFastBac HT
B1: binds [1]; binds [2].
